Results taken from the DeepSol protein solubility set.

assay: soluble on expression in E. coli; label from the status in PepcDB or PDB records

| Sequence | soluble on expression in E. coli |
| --- | --- |
| MQALQERLEKLENATGSEVWEVLKASEPELRQDLSSLQKLKADKESAAREALTALKTKKNELKNLKNDVESLKNEYKTYIEMVENGLKQSGLDIKQVVQVFERVLEESLSEKRLAILSTIDSAHISDIKSIKTPVKSILKLLEDPNKLQLRILVQSELREFSNSAIEIFRRSLWDLFQNQGIPMKNLGEMPNSEDFLQKIGELFQFSTDLDKLIAGNWGKSIENLISAAFGQLSNYCIDIIENERGEADFEWILKSSHDWAKNLSQILQKTVEKSNLESELKQEFEEKFNEKFVDFIKLITRKFLEKNIKEPTIFSNVAQMLKKFKISSEFNLSGDRDLQEPFYEPKFMSRWILVYYIVAKISEYPVLTQLFAPLKITVVSKKIFFF | not soluble |
| MQALYQLSATGAQQQNQQIPIGLSNSLLYQQLAAHQQIAAQQHQQQLAVSAAHQTQNNIMLATSAPSLINHMENSTDGKVKDDPNSDYDLQLSIQQQLAAAAQAAQMGQTQIGPQIVGQQGQPVVATTAGSTNGSAAVTQPDPSTSSGPDGPKRLHVSNIPFRFRDPDLKTMFEKFGVVSDVEIIFNERGSKGFGFVTMERPQDAERARQELHGSMIEGRKIEVNCATARVHSKKVKPTGGILDQMNPLMAQSALAAQAQMNRALLLRSPLVAQSLLGRGAALIPGMQQPAFQLQAALAGNPLAQLQGQPLLFNAAALQTNALQQSAFGMDPAAVQAALLANEQARFQLAAAAAQGNEYIMYHQAKQQELPGRIPSSGNASAFGEQYLSNALATASLPSYQMNPALRTLNRFTPY | not soluble |
| MQAVNTTSGGAVGVDRKQYMFSMLSSQEVDQMYAQSYQKTLGEAKSAGVLDTSSADARRVKAIAQRLIPQTAAFRPDATGWNWEVNVVKSDELNANCGPGGKIIFYTGLIDKLKLTDDEIAAVMGHEIAHALREHGREAMSKAYGVQVASQIGALAGLGQESLQLANTGVDYLMTLPNSRANENEADLIGLELAARAGYNPEAAITLWQKMGRASGGASQPEFTSTHPSDSSRMANLQAAIPKVMPLYQQARRGKLEHHHHHH | soluble |
| MQELKDKIKKLGYEEIKDIDDATFIASHKNVYVYVKKVDEEQLKPELVTAITYEAMATDPISTYAWITNGTSNAYVLVEEEKAVSEIPSVFEDENKLYSGKRQLTDRDKWSIRKYQELQEKFDGLHEMIYGMKDHVNNSNDVIDEFSKLIFLETFRLYHPEYRLTKGNVTGKLFNEIYRYEYVEKHKDKAVQEIREAFKEIKDHADYVAILDNGEKANIFSADEYIKLENPNIYIAVLKALQDLGTIIIDGVERPATLRDLTGDVLGRVFDVLLRGKFENKGGMGIYLTPRQVTEAAAEMVLHDLTKDGAAKLIAKDPKTGIPTLRIGDLCCGSGGFLIKMLQKIEHYLLNKLTGDKKQYEELFEQMKEHCFIGADNAPGMVLKARINMALHGAPKCPIFQTRNSLMNTRLKPGTFDAILTNPPFSKTGISKTIKKGKTTVENPEGAEIIKYYSSDIDEDGQNRMSPYGLSLGSKPDSRGKWKEVNSVDPAVLFIDRNLQLLKPGGLLMIVVPDGILSNSGDKYVREYIMGKKNPVTGEFEGGKAILKAVISLPQVTFALSGAGAKTSLLYLKKKEHPGEKQGPVFMAVADEVGFTVKQNVEVQLGDDHNDLLKIVEAYKKGMPEDVE | not soluble |
| MQEYSIDITLTHPDDVLALFGSNERHLKLIEAHLGVIVHARTERVQVIGEDEEAVELARLTIKALLVLVGRGMVVNTSDVVTALSMAESHQIDQFMALYEEEIIKDNYGKAIRVKTLGQKTYVDSVKRHDVVFGVGPAGTGKTFLAVTLAVTALKRGQVKRIILTRPAVEAGESLGFLPGDLKEKVDPYLRPVYDALYHILGKEQTTRLMERDVIEIAPLAYMRGRTLDDAFVILDEAQNTTIMQMKMFLTRLGFNSKMIVNGDTSQIDLPRNVKSGLIDATQKLQGIKQIDFVYFSAKDVVRHPVVADIIKAYETSSEEMKDLLKPKASDVEADYQPGLTKYPVIGQEHLEHHHHHH | not soluble |
| MQFLSPLILFTSCTLLATSLLAAEQAPPPSECLIKSQQISSQIQDAKTEGNKAEQSGLEKALAEVNANCTETSLLKQREQKVLDAKREVSRRQTDLNKAMDKGDPEKINKRKDKLAESRKELQEAQTDLEKVQSDDLEHHHHHH | not soluble |
| MQFNNKPLIGVVHLPPLPGSPGYKGELDEVIDRAISDAAKYQEAGFDAIILENYGDFPYSKTVGKETVSAFSVVANEVKREIALPLGINVLRNDCIAAYSIAYSIKADFIRVNVLTGVAFTDQGIVEGCARELAELRTRLPSRIDVLADVHVKHATHFSNFENALLDTIERGGADAVIVTGSRTGSEVDIQELITAKRISPVPVLVGSGVNPRNIKLFWRYSDGFIVGTWVKEGGRTINEVSIERATKLAKLVKSLREGLEHHHHHH | not soluble |
| MQFSKMHGLGNDFVVVDGVTQNVFFTPETIRRLANRHCGIGFDQLLIVEAPYDPELDFHYRIFNADGSEVSQCGNGARCFARFVTLKGLTNKKDISVSTQKGNMVLTVKDDNQIRVNMGEPIWEPAKIPFTANKFEKNYILRTDIQTVLCGAVSMGNPHCVVQVDDIQTANVEQLGPLLESHERFPERVNAGFMQIINKEHIKLRVYERGAGETQASGSGACAAVAVGIMQGLLNNNVQVDLPGGSLMIEWNGVGHPLYMTGEATHIYDGFITL | soluble |
| MQFVWEAERTKAKVNAMLCLKRQAVANPLFGKGRLKIFSDDLLFIEQIPQTADNPTDKLLQFRVDFLLFPRKANKSRKNIKNVKKLRTNSLISCNYM | not soluble |
| MQIEKLRGQGLDEFFQGILTLENLEECYAFFDDVCTVNEIQSMAQRFQVAKMLHDGKTYNVIESETGASTATISRVKRSLHYGNDMYDVVFSRMTKPE | not soluble |
| MQILFNDQAMQCAAGQTVHELLEQLDQRQAGAALAINQQIVPREQWAQHIVQDGDQILLFQVIAGG | soluble |
| MQIRNSHLYSASRLVQNTFNASSTKEAANTIAKNNESAALSATQTARTHEGDSKGKSSNGSRSHLRSMRYAAYLAGSAYLYDKTVNDFFLSTTSLNDGKQGFTSDARLQKAEKKAEANYHAYHNRANFGGVAPTRSSLLPKLCGENLFVTMLDFRAATKVHMKNLIDTKEAHDSIANNISCIMGERVKPELLKKHGIVQTPPDFDITKGASYDCKNKYSLSGVPNQETGSYGYASRSVSNPFIEKGENHHARAINSERALTPRNCVDALQPLLQKSERLSPEAQFRAGQALLILRPLYCSSENWGDAHKVLMPFLEKKGLVSSQENQKLGATRPFTQTDMEKGIARRNTSLAGPTLNKLNIFLQKSIYNKDEKAISDLTAKKLGEMKYIPIAHFKMNEDVSSFEDSSGLADSFTGYNVSAYINHARLLSGEDRLSKKDVIAIVGCLNAIYDNASSERHTLREIAHGCFVGAGYTVEDAEDFYNDACKAAATEFYGGRAINVQSQLYSSSVDKPDS | not soluble |
| MQIVQIARPGSMKGWIRKAVARYAHATGRGGKFYRRFCNPSGLEWGAYLARWGNFHSVGSNFYVNTGCKFLDPSLVRIGNSVGLSDCTLIGHDGVVLLIEHRFGKHLDSVGFIDIKDNCFIGHGAIVMPRVTIGPESIVAAGAVVTKDVPPGTVYGGNPAEFICTTEQLIKRVEARCEAYPWIDLVKQRNGAYDPEVEPLLMAQRRQYFFGDSLEHHHHHH | not soluble |
| MQKELINEIIGEVKPKAIALFGSQAKGKAGKFSDYDLLIITKDEESRNKAEKFEKGKVEIHALTMRTALELIHKGDPFFTQIVKECKPIYGEFYIKFLREVAENVGKSKVVA | not soluble |
| MQKINIDRHATAQINMLANKLMLKSSTAYTQKFGIGMTEWRIISVLSSASDCSVQKISDILGLDKAAVSRTVKKLEEKKYIEVNGHSEDKRTYAINLTEMGQELYEVASDFAIEREKQLLEEFEEAEKDQLFILLKKLRNKVDQM | soluble |
| MQKKSQTAQSYHPMIKEFPEFYGPLTCPGQFLALLILEFGLNFAEIQKLKWENFNWNFKYLTIEKAGIKRVLPIREKFAIRVKAINNADELFAKSRQFLYTELKKFTNYSSKEIREQYILHQVKAGKSIYELATLLGLTTITTLEKYYRLEHHHHHH | not soluble |
| MQKPDESNEKHDIPCTSASLLDHLIQKEASAAEDTDPLDHIGNIGEAIIGQFSSGADVGTEILQNALKMFDQAMAYTNPQAPPKRKYKRKEAPIEDAQPTTTSSATLASLLTLNPVPIESSAKRFHQNDLRAGFSPRTKFDVDCSDFFLLQGSDADTQFNNLHKKLEKERTQMFDDQVSKDVERLLNTANRVHGPREWTAEEKAEFTSYCRSWRSGALGADDKLNLQKFYSKAYGKVFQGLSENKASSEESAIDFSNFMGVGSEDPANQTEDVPGGSCKASPDNFSFSTLNPRMKYEKEKEFRSAINNIFTEVFKEFHSKKQFIPKPTRLDVPPCEIEREHLSMLMSKFSIAMDDPEKEWNVDELQELRRFYTLFREKNHLPFVQTKEFGKFLRKAFGRLEHYELQRENDTSLQEKRKFWQEYRKTHVPPKRERKACAARTTPVRPYIKSNIDTKGETEEERRLRRAAYLRKWRLAQKEKHSADVMSQFKHQEDVAL | not soluble |
| MQKTFEEYERFFTTEKDMIPATIFTAPKKKFLQADSKFYEKRRVWILVISQHLVDNNLRSEDVRRFFHLESPDDDENNVDLGPSERKTATANDFDYLTTIGKGSFGRVYQVRHKETKKIYAMKILSKEHIRKKNEVKHVMAERNVLINNFKHPFLVSLHFSFQNKEKLYFVLDHLNGGELFSHLQREKHFSESRSRFYAAEIACALGYLHEKNIIYRDLKPENLLLDDKGYLVLTDFGLCKEDMQGSKTTSTFCGTPEYLAPEIILKKPYDKTVDWWCLGSVLYEMIFGLPPFYSKDHNEMYDKIINQPLRLKHNISVPCSELITGLLQKDRSKRLGHRNDFRDIRDHPFFLPVDWDKLLNRELKAPFIPKVKNAMDTSNISKEFVEIQIDPSSLAPQQLAVTHRDHDFENFTFVDTNRVLV | not soluble |
| MQKVEGIIFDMDGVLFDSERISLEFWMETFEKYGYTMTKEIYTSVMGRNRKGIIEGLTDIYDSSVPIIDLYDEKTKNMIEFMERKGAPIKLGVNELISFLKENGYKMAVATSTKRERAVKRLAKANLKDYFDAIVCGDDVVNSKPNPEIFLKAAKKINVNPKNCIVIEDSPMGVEAAYNGGIRCINVPDLKEPDEQIKSQSHKILENLLEVREYLKSLNSKECHNL | not soluble |
| MQLKRVAEAKLPTPWGDFLMVGFEEIATGHDHLALVYGDISGSVPVLARVHSECLTGDALFSLRCDCGFQLEAALGHIAEEGRGVLLYHRQEGRNIGLLNKIRAYALQDLGADTVEANHQLGFAADERDFTLCADMFKLLDVDEVRLLTNNPQKVKILNEAGINIVERVPLIVGRNPKNEHYLATKAAKMGHILDMKLEHHHHHH | not soluble |
| MQNIFDPLIIRGKSLIPIVQGGMGVGVSASGLSSAVARENGIGTIASVDLRHLHEDLLAESQINPSEEKYTSLNCTALDREIQKAKSASEGKGLIAVNVMKAVKDHAAYVRQACESGADAVVMGAGLPLDLPEMTEGYHKDVALLPILSESRGINIVLKRWMKKGILPDAIVVEHPAHAAGHLGASTVEGVNDAKFDFKRVIEETFEVFKNLGLEGEKIPLILAGGMANFEKVKTALKNWGASAVQIGTAFAVTEEGDAHLNFKKTLASAETEKVVEFMSVAGLPARGIRTKFLDSYIRREGKLQANAKADPRRCTQGLNCLTSCGLRDGLSKAGQFCIDIQLAAAFRGEVDKGLFFRGKDQLPFGNAIRTVRETIQYLLTGSEPVATLGR | not soluble |
| MQPSIAPSTPIPRQETVELVYRIFGDVLVPLEQVRERWFRNLNKENFSKALACGRIALPVTTLDDSHKAMQFVALDHLAAYVDQRANQAGSARRAQPGADSIAS | not soluble |
